From patent US20130273035

Target: Aβ1-42 (UniProt P05067)
Sequence (P05067 whole entry, looked up, tested part not stated): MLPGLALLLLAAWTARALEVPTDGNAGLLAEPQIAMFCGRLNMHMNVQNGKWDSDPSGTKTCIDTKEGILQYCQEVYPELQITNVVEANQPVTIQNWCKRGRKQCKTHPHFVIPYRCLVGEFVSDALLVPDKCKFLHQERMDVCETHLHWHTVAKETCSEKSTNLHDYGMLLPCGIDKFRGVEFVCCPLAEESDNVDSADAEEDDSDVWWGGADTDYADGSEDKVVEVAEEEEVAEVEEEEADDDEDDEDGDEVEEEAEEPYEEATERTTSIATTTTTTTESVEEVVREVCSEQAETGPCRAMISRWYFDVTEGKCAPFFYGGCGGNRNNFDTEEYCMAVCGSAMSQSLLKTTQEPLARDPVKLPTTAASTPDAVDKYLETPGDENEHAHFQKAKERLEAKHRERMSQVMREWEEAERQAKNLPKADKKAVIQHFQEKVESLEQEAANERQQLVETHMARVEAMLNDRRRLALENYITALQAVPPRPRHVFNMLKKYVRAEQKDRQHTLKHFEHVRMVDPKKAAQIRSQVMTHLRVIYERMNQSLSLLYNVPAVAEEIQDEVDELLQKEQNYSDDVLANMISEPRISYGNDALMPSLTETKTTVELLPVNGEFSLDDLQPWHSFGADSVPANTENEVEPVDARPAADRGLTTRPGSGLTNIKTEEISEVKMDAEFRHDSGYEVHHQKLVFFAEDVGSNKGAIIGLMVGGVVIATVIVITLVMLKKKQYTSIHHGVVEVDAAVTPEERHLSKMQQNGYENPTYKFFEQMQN

Cathepsin L
proteolytic products analyzed with SELDI-TOF mass spectrometry: Incubating Aβ1-42 with CatL resulted in the dose-dependent generation of Aβ6-42 through proteolytic cleavage
